Measured values as given in the supplement of paper PMC9732359.
± gives the uncertainty stated by the source.

Experiment: protein stability index of a GFP-peptide fusion (yeast GPS) (PSI 1-4); higher = more stable; sorted into four equal gates, so the index is relative within each strain
Procedure, shortened: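 Tiled 17-residue yeast protein peptides were fused downstream of GFP in a plasmid that also expresses Cherry, and the pooled library was carried in yeast. Mid-log cultures in leucine-free medium were sorted into four equal gates by GFP/Cherry fluorescence ratio, and plasmids from each gate were PCR-amplified and Illumina-sequenced, with reads assigned to strains by barcodes. The protein stability index for each peptide was each gate's read frequency times its gate number, summed.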

Sequence | protein stability index (doa10∆) | protein stability index (pdr5∆) | protein stability index (san1∆) | protein stability index (ubr1∆)
SNTIDELSTDIILKTRQ [SRB7] | 2.96 ± 0.076 | 3.19 ± 0.083 | 3.18 ± 0.089 | 3.03 ± 0.063
GSSAGMNGRSLTYAQQQ [SNF6] | 2.99 ± 0.083 | 3.15 ± 0.081 | 3.03 ± 0.058 | 3.24 ± 0.044
IFSFHQDSIFQRIIADL [SRB8] | 2.49 ± 0.062 | 2.06 ± 0.072 | 2.24 ± 0.081 | 2.41 ± 0.035
NKDSIEECGRTIHRSFT [CSN12] | 3.21 ± 0.067 | 3.13 ± 0.066 | 3.28 ± 0.043 | 3.12 ± 0.046
LWNQWLKLNTSLPSKLT [SRP68] | 1.45 ± 0.049 | 1.51 ± 0.052 | 1.36 ± 0.11 | 1.83 ± 0.037
KLNQKYDIVKFLTVSKL [GRR1] | 1.76 ± 0.037 | 1.99 ± 0.03 | 2.06 ± 0.052 | 2.04 ± 0.026
NTHAVLVALKRNADELS [PRE5] | 2.13 ± 0.067 | 2.69 ± 0.05 | 2.45 ± 0.05 | 2.41 ± 0.039
AQYCYKNGLYQEAFKIY [SRP72] | 2.87 ± 0.075 | 2.94 ± 0.097 | 3.1 ± 0.069 | 3.25 ± 0.059
TEDVRLAPELNQAIWKR [RPL31B] | 2.67 ± 0.069 | 2.99 ± 0.083 | 3.03 ± 0.062 | 3.08 ± 0.05
VQGAAPWDTSLEVGRRF [MCD1] | 3.48 ± 0.13 | 3.39 ± 0.13 | 3.28 ± 0.088 | 3.43 ± 0.16
VEESGEHVILGNGELYM [SNU114] | 3.31 ± 0.08 | 3.12 ± 0.066 | 3.3 ± 0.051 | 3.13 ± 0.057
RNDSTVNDSVISAPSME [BRN1] | 2.71 ± 0.085 | 2.95 ± 0.083 | 2.78 ± 0.061 | 2.96 ± 0.061
LISLIMTTWRKLYTKEL [YMR129W/POM152] | 2.35 ± 0.092 | 1.15 ± 0.093 | 1.42 ± 0.17 | 1.16 ± 0.044
PVGRELDPISLILIPGE [RPN13] | 2.65 ± 0.098 | 2.56 ± 0.05 | 3.13 ± 0.062 | 3.23 ± 0.098
VPVIESAGFETDLRLST [SNU114] | 3.14 ± 0.21 | 3.12 ± 0.23 | – | 3.17 ± 0.14
EVEVSTRDLFDLEKDRA [RPO31] | 3.07 ± 0.052 | 3.37 ± 0.061 | 3.28 ± 0.042 | 3.23 ± 0.048
GKHNLTIWCVCDSYLDA [BRR2] | 2.04 ± 0.059 | 2.26 ± 0.083 | 2.73 ± 0.093 | 2.31 ± 0.045
RVHDQPLIWQLLQSSII [POP3] | 1.43 ± 0.062 | 1.78 ± 0.07 | 1.66 ± 0.11 | 1.7 ± 0.028
QMDQQLQYTALTGSPNN [ARP7] | 2.91 ± 0.11 | 3.36 ± 0.096 | 3.33 ± 0.071 | 3.13 ± 0.063
VSLEERTKNLVSKMEKA [SMC4] | – | 2.95 ± 0.064 | – | –
MSVERGIRWELISRLCP [RPT1] | 1.73 ± 0.052 | 2.17 ± 0.048 | 1.88 ± 0.07 | 1.93 ± 0.034
QFASPVRWIETQDVFLK [FAS2] | 2.3 ± 0.026 | 2.06 ± 0.022 | 2.25 ± 0.027 | 2.195 ± 0.018
VPTKIARGTIEIVSDVK [RPP0] | 2.26 ± 0.25 | 2.38 ± 0.055 | 2 ± 0.17 | –
LSDNAKTLHSQMMSKGI [RPC34] | 3.19 ± 0.18 | 3.32 ± 0.098 | 3.26 ± 0.071 | 3.11 ± 0.056
RPEQLSNIIHDESDTIS [SNF6] | 1.82 ± 0.09 | 2.58 ± 0.063 | 2.02 ± 0.11 | 2.32 ± 0.061
FEIQGVPPMKLAYSKIV [YMR129W/POM152] | 1.59 ± 0.074 | 2.01 ± 0.063 | 1.53 ± 0.1 | 1.74 ± 0.062
FEEDEKNSDVWFLDHNY [RPN8] | 2.7 ± 0.077 | 1.73 ± 0.073 | 1.5 ± 0.14 | 1.48 ± 0.084

Sequence | protein stability index (doa10∆) | protein stability index (pdr5∆) | protein stability index (san1∆) | protein stability index (ubr1∆)
DTIMENPEPNKKNIQKA [IRR1] | 2.36 ± 0.25 | 2.84 ± 0.13 | 3.18 ± 0.2 | 2.99 ± 0.11
AETIILSSAGKNSSVSS [SRB5] | 1.65 ± 0.063 | 2.17 ± 0.051 | 2.06 ± 0.083 | 1.89 ± 0.075
FLLRRVKADVEKSLLPK [ISW2] | 3.19 ± 0.13 | 3.05 ± 0.17 | 3.02 ± 0.079 | 2.94 ± 0.1
PNVFDKDSYVRIANIEQ [YDL088C/ASM4] | 3 ± 0.093 | 3.09 ± 0.047 | 3.04 ± 0.07 | 3.22 ± 0.051
NVGLCITIYDLLTVEEG [RPC25] | 1.45 ± 0.091 | 1.26 ± 0.067 | 1.45 ± 0.16 | 1.57 ± 0.076
EEEKSVDASPNDVTRRT [CSL4] | 3.25 ± 0.08 | 3.33 ± 0.085 | 3.27 ± 0.05 | 3.44 ± 0.065
KRRFGELMDRTGLKLYS [RPP1] | 2.21 ± 0.18 | 2.98 ± 0.12 | 2.23 ± 0.11 | 2.45 ± 0.11
VVAKLEDKRKVRSAEYY [RPL16B] | 3.49 ± 0.1 | 3.58 ± 0.11 | 3.15 ± 0.12 | 3.37 ± 0.14
ARTIKATLPYIKQDIPI [RPB2] | 2.73 ± 0.1 | 2.3 ± 0.061 | 2.26 ± 0.075 | 2.74 ± 0.072
KTLHSQMMSKGIGALFT [RPC34] | – | – | – | 3.18 ± 0.21
SCISISDIISMLQISDD [RRI2] | 1.82 ± 0.083 | 1.34 ± 0.061 | 1.19 ± 0.12 | 1.14 ± 0.04
ITSLQDSSSQCIVDFTN [YMR129W/POM152] | 2.67 ± 0.067 | 2.92 ± 0.066 | 2.69 ± 0.058 | 2.85 ± 0.059
AGLEITSDNLLTITKAA [RPP1B] | 2.42 ± 0.051 | 2.55 ± 0.048 | 2.78 ± 0.064 | 2.65 ± 0.046
TGANFDDVERGVSRQIA [REC8] | 3.49 ± 0.11 | 3.63 ± 0.17 | 3.32 ± 0.24 | 3.58 ± 0.12
ENELFNDRKQTTVSNDL [SSN2] | 2.74 ± 0.16 | 3.14 ± 0.079 | 3.11 ± 0.06 | 3.02 ± 0.081
RRKFDPSSSENVMTPRE [UBP6] | – | 1.99 ± 0.11 | 2.45 ± 0.22 | 2.96 ± 0.23
LGVEDITLIDSASLHLN [RET1] | 2.03 ± 0.063 | 1.61 ± 0.043 | 1.8 ± 0.1 | 1.8 ± 0.046
KPNNTANTGGGLFGANS [YGL172W/NUP49] | 3.16 ± 0.14 | 3.28 ± 0.089 | 3.03 ± 0.072 | 3.08 ± 0.089
MKTKTINAQGEEIVVVA [PRP8] | 1.72 ± 0.089 | 1.92 ± 0.12 | 1.36 ± 0.19 | 1.52 ± 0.06
TRIQYVDFACCTNLTNR [GRR1] | 2.82 ± 0.057 | 2.6 ± 0.069 | 2.58 ± 0.1 | 2.36 ± 0.049
PSYTHVLISKLSCEKIT [RRI1] | 2.18 ± 0.04 | 1.99 ± 0.043 | 2.12 ± 0.047 | 1.98 ± 0.035
ATKDNELNVKHVKQCQE [SMC2] | 2.96 ± 0.1 | 3.35 ± 0.2 | 2.97 ± 0.066 | 3.32 ± 0.05
LEEEFVSNSEILKPFEK [RPT2] | 2.85 ± 0.074 | 2.88 ± 0.054 | 3.05 ± 0.073 | 2.51 ± 0.14
NQMGMGTNNGMSMGGGV [YOR098C/NUP1] | 3.39 ± 0.13 | 3.15 ± 0.17 | 3.33 ± 0.099 | 3.24 ± 0.11
VVSLKEGMFANANRVFR [SMC2] | 2.84 ± 0.071 | 3.11 ± 0.11 | 3.26 ± 0.06 | 3.18 ± 0.062
EEKVLSTRLKKACKTAD [SRP68] | 3.18 ± 0.087 | 3.22 ± 0.077 | 3.56 ± 0.14 | 3.21 ± 0.075
SNSSSSPPIIDLFSNNN [MED1] | 2.77 ± 0.06 | 2.82 ± 0.05 | 2.83 ± 0.042 | 2.9 ± 0.042
